# In the DeepSol protein solubility set:
# Assay: soluble on expression in E. coli; label from the status in PepcDB or PDB records
row,Sequence,soluble on expression in E. coli
1,GAMAPSTIWHCFLKGTRLCFHKESNKEWQDVEDFARAASCDNEEEIQMGTHKGYGSDGLKLLSHEESVSFGESVLKLTFDPGTVEDGLLTVECKLDHPFYVKNKGWSSFYPSLTVVQHGIPCCEIHIGDVCLPPGHPDAINF,soluble
2,MAHHHHHHMFCFSRGLWMRHIGQDVPKRHTHFVLESRLMYEKSFRDCWLHSVCRAISQLDEPLSKTVVGTHQKMLQRKVTCFQYNQYGLFKTPYYRLANVDRYHAVQGVAGTREWVPYVNVSYWTMNKMVRGGNLLVHRVHYTGWGTDSHLKKGGWEHRWNKVLQRNVLQYSRI,not soluble
3,MSGPAHLPYGGIPTFARAPLVQPDGDWQADVAALGVPFDIALGFRPGARFAPRALREASLRSVPPFTGLDGKTRLQGVTFADAGDVILPSLEPQLAHDRITEAARQVRGRCRVPVFLGGDHSVSYPLLRAFADVPDLHVVQLDAHLDFTDTRNDTKWSNSSPFRRACEALPNLVHITTVGLRGLRFDPEAVAAARARGHTIIPMDDVTADLAGVLAQLPRGQNVYFSVDVDGFDPAVIPGTSSPEPDGLTYAQGMKILAAAAANNTVVGLDLVELAPNLDPTGRSELLMARLVMETLCEVFDHVL,soluble
4,MSLAANMYRVGDYVYFENSSSNPYLVRRIEELNKTANGNVEAKVVCLFRRRDISSSLNSLADSNAREFEEESKQPGVSEQQRHQLKHRELFLSRQFESLPATHIRGKCSVTLLNETDILSQYLEKEDCFFYSLVFDPVQKTLLADQGEIRVGCKYQAEIPDRLVEGESDNRNQQKMEMKVWDPDNPLTDRQIDQFLVVARAVGTFARALDCSSSIRQPSLHMSAAAASRDITLFHAMDTLQRNGYDLAKAMSTEGHHHHHH,not soluble
5,GPGSMTNPSNSNLQALREELCTPGLDQGHLFEGWPETVDECNERQIALLTDLYMFSNMYPGGVAQYIRNGHELLARESEEVDFAALEMPPLIFEAPSLHRRTAERTALENAGTAMLCKTVFVLVAGGLGERLGYSSIKVSLPVETATNTTYLAYYLRWAQRVGGKEVPFVIMTSDDTHDRTLQLLRELQLEVPNLHVLKQGQVFCFADSAAHLALDETGKLLRKPHGHGDVHSLIYNATVKRDVVPDSGDGTATAQPLVNDWLAAGYESIVFIQDTNAGATITIPISLALSAEHSLDMNFTCIPRVPKEPIGLLCRTKKNSGDPWLVANVEYNVFAEVSRALNKDGGDEVSDPTGFSPFPGSVNTLVFKLSSYVDRLRESHGIVPEFINPKYSDETRRSFKKPARIESLMQDIALLFSEDDYRVGGTVFERFSYQPVKNSLEEAAGLVAQGNGAYCAATGEAAFYELQRRRLKAIGLPLFYSSQPEVTVAKDAFGVRLFPIIVLDTMCASSGSLDDLARVFPTPEKVHIDQHSTLIVEGRVIIESLELYGALTIRGPTDSMALPHVVRNAVVRNAGWSVHAILSLCAGRDSRLSEVDRIRGFVLKKTAMAVMDCNTKGESEAGAPSGAADPAKL,soluble
6,MDFDMIEEKKDSVIVRNVENFELKDIFDCGQCFRWHRQENGNYIGIAFEKVVEVQKIGEDVVIYNINEEEFKNVWSEYFDLYRDYGEIKKELSRDPLLKKSVDFGEGIRILRQDPFEILLSFIISANNRIPMIKKCINNISEKAGKKLEYKGKIYYAFPTVDKLHEFTEKDFEECTAGFRAKYLKDTVDRIYNGELNLEYIKSLNDNECHEELKKFMGVGPQVADCIMLFSMQKYSAFPVDTWVKKAMMSLYVAPDVSLKKIRDFGREKFGSLSGFAQQYLFYYARENNIQL,soluble
7,AAAAAAMTMMDMNFKYCHKIMKKHSKSFSYAFDLLPEDQRKAVWAIYAVCRKIDDSIDVYGDIQFLNQIKEDIQSIEKYPYEYHHFQSDRRIMMALQHVAQHKNIAFQSFYNLIDTVYKDQHFTMFETDAELFGYCYGVAGTVGEVLTPILSDHETHQTYDVARRLGESLQLINILRDVGEDFENERIYFSKQRLKQYEVDIAEVYQNGVNNHYIDLWEYYAAIAEKDFRDVMDQIKVFSIEAQPIIELAARIYIEILDEVRQANYTLHERVFVEKRKKAKLFHEINSKYHRI,soluble
8,MITELTNIHLIKGNLQANSKNEVFAELAQMLLENNRISNKEDFLNDIEIRERLSVTSMDGIAYPHSKSKAVTKPAIAVGVKHEGIEYGDEEGIKPTVFFMIASPDNGADHHIYVLQELFGKFSEEFIEDIHNAKNEHQILNISIQS,not soluble
9,MSLRYKVGEVAARLGLTLRTLKYYEELGLVTPERTDSRYRMYSEADVQRLERIRRMRALGLSLGTIQAISTHPQESDPDGRQVLTQEALHTLESDLSSQLTVLSTRITAAEKELKDARALRRDVQRDLDYVQRRLAGAQVGELLREKDPAEGHHHHHH,not soluble
10,MGSDKIHHHHHHMKVTTISIDLAKNVFQVLGMDCHAKQVFNKRLNRTQLTEFMLQQPNCDVVFEACYSSHYWGRKFLAMGHNVKLIPAQHVTPFVRGSKNDNNDTMAIYEASFRPNIRFVPVKTEEQQEILMLHRIRERLVKEKTACTNQIRGVLVDFGICFAQGYKAFEVAIWDIINDASQRPIIKLMANDFWGEYQSVNTRLDRINTLIKKLIERDPNGKILLSIPGVGPIIASAFVASIGRGQAFNTAKELGVWLGLTPKQFASGHRSVNGSITKRGNGYLRKQLIHGARAVVSHASKKQDDLNLWIMQLRSRKSICSTVVATAHRLARLIWILLQKQVPYVPQYAANQGVNHGTC,not soluble
11,ELPKKRELCKFYITGFCARAENCPYMHGDFPCKLYHTTGNCINGDDCMFSHDPLTEETRELLDKMLADDAEAGAEDEKEVEELKK,soluble
12,MAHHHHHHMEQFLNQVAASNKTVKCIKGALQIYDTYGEVFSLVHERRYEEAGIICTHFSDHIGQLFLGTTDGNCLVYYHDERSGDEQRSGVEERSGDDLYGDADRCGVPPVGRKKKGGVLEYLHKGVKRKRERASFYTNSEHIYNLDSLPKEIKITDAGDVLIKKDLINAKVKMNPKLSSFTANAYEKKRQVGMYSKYIVDANPSGKDPSSSQTNKGNEYEEEDIVEKLRKREQSKQGGDYFMNAYKYTQPSAIIDYSSGEEQEYSQLLKKPKCPQCGVKNCVCGFMRSGGRRAR,not soluble
13,MLFTIEQLELIKKLQHTGMSSDQLLKAFGELEVPEQLQNNNTIAAALYSPLLVQHLTTPKSETPVKLTVQTVPTPVKSEPQSSNCSSPFEHPICSNAPRPIRSQRTPMKEITTLDDPNELEEFMKQGEEACILDMKTFITQYSLRQTTVAMMTGVSQPYISKLLNGNHRELSLRCRKNIYCWYLNCRRHPNKLAAFLADPTTRLETNGDGELIPQRRERYVFRPILIRMLESFFTQTPFPDLPRRVEIANACNHVLKMDKKGVGLMPKEVVSPQVVSNWFANKRKELRRRSAEASAASTSSASSSASSTANHDSVSVSSMSPRDEETSSRNTTPETAISPSPAVSTFEVSRPSAIISATSSTTSPISIPATIIPSVSPSALELFAMAQQLGVQLPVPFPTLPTHFFPFQMAPFYGNPASILKSE,not soluble
14,AKEDNIEMQGTVLETLPNTMFRVELENGHVVTAHISGKMRKNYIRILTGDKVTVELTPYDLSKGRIVFRSR,soluble
15,MISRHFTVLTALNLQTKIKICIRNFSIRGAMTKVNGNSNGNGISASTDLLDTPSAYTQKSNKTHTSIDLRSDTVTVPSVEMRRAMAEAIVGDDVYGEDTTTNRLEQRCAELFGKEAGLFVTSGTMGNLLAIMAHCQRGEEIIVGRYNHIHRWEQGNYAQFAGISATTLEVKPDGTMDLNDIEQAIRVKGGYVQIKDESCDDLEVTSIPDCHMPASKLICIENTHNYTGGKALPIEWMRSVKQLAERRDLKVHMDGARIYNAAVASNCSVSKIASFADTVQMCFSKGLGAPVGSIVVGPKDFIDRARHSRKALGGGWRQSGILAAAAHIALDHADATIRADHERAKTLARMINDATPEEFRTKVFAAEKDITNMVLVHCQNGVTVQQLTDFFQKHDILAMTFDARRIRMVLNWNVSDENLETIVEVYKKFLKQL,not soluble
16,MGHHHHHHSHMFPCQHCERKFTTKQGLERHMHIHISTVNHAFKCKYCGKAFGTQINRRRHERRHEAGLKRKPSQ,soluble
17,MSLSILQRLIQQAKNPRGTIGSSMLCIMNTAHTRLTNWALQKVHIKKDAIILDIGCGGGKTIHTLSKRTPLGKIYGIDYSYQAVKNSIQTNIKDVQKQKVIVQQASVSSIPYHTNFFDLITAFQTHYFWPDVEQDIKEVFRVLQPNGSFLLVAETFKIQYHMEKWKTNEELINLFYKTGFTSVKCYEERGCLCVIGTKEGHHHHHH,not soluble
18,MKGVRSMMGNLVITIGRECGSAGRLIGQKLAADLGVKCYDKELLTLAAKNSGLCEELFKTHDEKPTSSFLYSLVMDTYSLGYNTSAYMDMPINHKIFLAQFDTIKKLAEEESCVIVGRCADYALADYPNTVSVFICGDEEDKIRHLMERHNVDEAKAKDIMIKTDKRRASYYNYYSSKRWGSCKSYDMCISSSAVGYDGAVDIIKEFAKKKQEFLKTKNYK,not soluble
19,MAATSRPERVWPDGVIPFVIGGNFTGSQRAVFRQAMRHWEKHTCVTFLERTDEDSYIVFTYRPCGCCSYVGRRGGGPQAISIGKNCDKFGIVVHELGHVVGFWHEHTRPDRDRHVSIVRENIQPGQEYNFLKMEPQEVESLGETYDFDSIMHYARNTFSRGIFLDTIVPKYEVNGVKPPIGQRTRLSKGDIAQARKLYKCPA,soluble
20,MRPVLLLCCLFLSATAQAEDCSPQTSVGSWCELPLAALHPTQQNVGLLQVEDDQAKLAGKKPKALERYLRKKEIPVVIGPGGRFYLTDRHHLSSALWRLDPKQGVPVKVIGRLPQASDFWEKMQENHWVWLHDARGAEIPPEALPDALAGLGDDPYRALAGYAEDENAFDKDRQSYFIEFHWARYFGERMHWRPISRATLPDDLKQALRLACEPAARELPGYRQDCPH,soluble
21,MQVMASPPCTTEELSPPPGGSLVEYSGGSLRVPDNPVVAFIRGDGVGPEVVESALKVVDAAVKKVYGGSRRIVWWELLAGHLAREKCGELLPKATLEGIRLARVALKGPLETPVGTGYRSLNVAIRQALDLYANIRPVRYYGQPAPHKYADRVDMVIFRENTEDVYAGIEWPHDSPEAARIRRFLAEEFGISIREDAGIGVKPISRFATRRLMERALEWALRNGNTVVTIMHKGNIMKYTEGAFMRWAYEVALEKFREHVVTEQEVQEKYGGVRPEGKILVNDRIADNMLQQIITRPWDYQVIVAPNLNGDYISDAASALVGGIGMAAGMNMGDGIAVAEPVHGTAPKYAGKDLINPSAEILSASLLIGEFMGWREVKSIVEYAIRKAVQSKKVTQDLARHMPGVQPLRTSEYTETLIAYIDEADLNEVLAGKRG,soluble
22,GPGSMSGSTQRAEQQRRIQQLHERLELYNIADRHTDPTSNSAGGVGFASAGGLETGGGDKAPTTKPSRAAPMSGSPNLKPTSAPTSNAFFFTSSLPRRAADAGAPSSTLGLQQGNGSGSRATAAPSATEIAEVSRASPTPQQQPQVQMPPPAPAPQLARNLAQEFFGSAASPTHASPTRAASRSSAMTSGAAASPVAPERPSVTAAYPESATEATAAATAAKAGSPPLAANVFDYYEDFKSDGSEGDEYEVEEVEECMEDEEDYVGDGEDTDEHARGKASLTLEDVLRRLHRACSGSVDHAAAASPLEQAMAAASASSPLARDPSLATATPAAAAATRVTLTAAAASPIGTTYPFLQQATEVYRQRHLYKATQEHQQHHSPFNTGYAWSTDEETSVTDTSTSEPTEGLGDASESRSASVSSSASAASKGHLTAANAAAAVQNSGLLAAALQPLADTAIATPTASDRASAEKVLPSSALCFDQLETAYRRLLILQQGAKYVSELAGPECFPRPLPRQEEARALAEQRDMVVKRDTEMRAAPPAGSSLEDLRQRESAAIERTLGLLREKFDAAMKSLKPVADREAAIEGKRRTLKQRELDIAKQREARLIVEREVAAAEKRLMERSEQLRKREEDYSARLQQHDHQQKAAQEQIGEVEQLSKQVSSWLAILEERDRRLARKEKRLQRVQADLLKRTEDIIVWKRATQRIKQIPPPPSPPRIS,not soluble
